Measurements published in patent JP2006347922A (dated 2006).
Residue numbers refer to the chain shown, from its start.

Experiments:
Test in all cases: ELISA, coated protein
[1] = target: T1, BSA(ウシ血清アルブミン) (ウシ, UniProt P02769 25-607)
T1 construct: also called BSA

[2] = target: T2, HSA(ヒト血清アルブミン) (ヒト, UniProt P02768 25-609)
T2 construct: also called HSA

[3] = target: Human-hemoglobin (human, UniProt P69905 2-142; P68871 2-147)

Measured: binding result

T2 sequence (P02768 25-609): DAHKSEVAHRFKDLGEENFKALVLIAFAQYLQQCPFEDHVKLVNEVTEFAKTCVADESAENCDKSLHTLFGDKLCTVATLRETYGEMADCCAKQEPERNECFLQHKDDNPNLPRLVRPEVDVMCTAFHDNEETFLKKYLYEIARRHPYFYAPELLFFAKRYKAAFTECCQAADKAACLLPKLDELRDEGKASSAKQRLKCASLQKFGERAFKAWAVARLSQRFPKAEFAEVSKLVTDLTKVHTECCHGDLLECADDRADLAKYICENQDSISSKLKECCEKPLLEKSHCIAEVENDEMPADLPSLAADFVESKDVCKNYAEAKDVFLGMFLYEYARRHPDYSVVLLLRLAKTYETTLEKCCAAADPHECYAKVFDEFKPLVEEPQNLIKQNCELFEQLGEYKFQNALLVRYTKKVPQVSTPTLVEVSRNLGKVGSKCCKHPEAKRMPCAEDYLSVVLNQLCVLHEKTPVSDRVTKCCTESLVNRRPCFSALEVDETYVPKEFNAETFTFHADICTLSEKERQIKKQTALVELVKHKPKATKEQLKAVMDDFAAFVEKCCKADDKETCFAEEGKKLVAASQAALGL
T1 sequence (P02769 25-607 limits assumed): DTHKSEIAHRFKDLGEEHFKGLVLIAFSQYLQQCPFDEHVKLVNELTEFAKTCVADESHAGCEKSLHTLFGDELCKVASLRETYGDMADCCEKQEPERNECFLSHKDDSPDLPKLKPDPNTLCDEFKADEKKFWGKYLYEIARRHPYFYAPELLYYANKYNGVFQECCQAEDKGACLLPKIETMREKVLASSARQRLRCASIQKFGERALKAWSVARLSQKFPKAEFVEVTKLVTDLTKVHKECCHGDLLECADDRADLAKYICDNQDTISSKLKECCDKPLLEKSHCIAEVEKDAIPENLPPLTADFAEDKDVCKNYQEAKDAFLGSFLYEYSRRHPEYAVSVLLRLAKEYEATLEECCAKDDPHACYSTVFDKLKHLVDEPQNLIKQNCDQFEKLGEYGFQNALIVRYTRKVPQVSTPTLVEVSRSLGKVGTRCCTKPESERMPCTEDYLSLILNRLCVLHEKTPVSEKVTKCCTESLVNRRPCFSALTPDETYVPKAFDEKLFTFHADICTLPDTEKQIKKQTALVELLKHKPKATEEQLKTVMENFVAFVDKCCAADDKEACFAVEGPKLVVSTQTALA
Human-hemoglobin, sequence (P69905 2-142 limits assumed, chain 1 of 2): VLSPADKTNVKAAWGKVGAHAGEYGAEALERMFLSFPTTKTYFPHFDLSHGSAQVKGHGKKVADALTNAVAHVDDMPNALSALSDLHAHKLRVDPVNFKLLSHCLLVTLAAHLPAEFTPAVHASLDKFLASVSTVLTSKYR
Human-hemoglobin, sequence (P68871 2-147 limits assumed, chain 2 of 2): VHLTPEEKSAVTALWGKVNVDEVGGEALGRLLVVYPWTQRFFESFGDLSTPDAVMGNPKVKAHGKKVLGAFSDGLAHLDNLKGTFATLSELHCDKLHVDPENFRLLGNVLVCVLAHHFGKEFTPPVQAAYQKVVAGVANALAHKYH

B1: モノクロナール抗体(抗体酵素)HA1−1 (antibody, V domains shown)
VH: QVQLQQSGPQLVRPGASVKISCKTSGYSFTTYWMHWVKQRPGQGLDWIGMIDPSESETRLNQKFKDKATLTVDKSSSTADMQLSSPTSEDSAVYYCASYEGYWGQGTLVTVS
VL: DIVMSQSPSSLAVSAGEKVTMSCKSSQSLLNSRTRKNYLAWYQQKPGQSPKLLIYWASARESGVPDRFTGSGSGTDFTLTISSVQAEDLAVYYCKQSYTLTWTFGGGTKVEIKR
notes: also called HA1-1; HA1−1抗体
no binding: all assays above

B2: モノクロナール抗体(抗体酵素)HA1−2 (antibody, V domains shown)
VH: QVQLQQSGPHLVRPGTSVRISCKASGYSFTSYWMHWVKQRPGQGLEWIGMIAPSDSETGLNQKFKDKATLTVDKSSSTAYIQLSSPTSEDSAVYYCASYEAYWGQGTLVTVS
VL: B1 VL with A15V, T34A, A59T, T99N, L100V, V110L
notes: also called HA1-2; HA1−2抗体
no binding: all assays above
